Source: patent US20200378979, “FLUORESCENT MEROCYANINE DYES, ASSOCIATED CONJUGATES AND METHODS” (University of Guelph, published 2020)

What was measured:
thrombin [1] = target: T1, thrombin (Bos taurus, UniProt P00735;P00735 P00735:318-366,P00735:367-625); assay: FP; K+ phosphate buffer pH 7.0, 20 C; Table 6 lists 1.5±0.3 uM; settings: tags: bovine thrombin dry powder, Sigma Aldrich; label: 5'-4QI; antiparallel G4
thrombin [2] = target: T1, thrombin; assay: FP; K+ phosphate buffer pH 7.0; duplex to G4 exchange, 36% fluorescence increase; settings: tags: bovine thrombin dry powder, Sigma Aldrich; label: 5'-4QI; partial duplex with 9-mer complement, 3' ssDNA

GGTTGGTGTGGTTGGT (structured_DNA, 5'-4QI merocyanine end-label; extra 3' dT) [4QI-TBA-E]
Kd (thrombin [1]): 1.1 µM

B1: 4QI-TBA-E:TBA-C9 duplex (dsDNA)
DNA 1: GGTTGGTGTGGTTGGT
DNA 2: ACACCAACC
modifications: 5'-4QI on aptamer strand; extra 3' dT
Kd (thrombin [2]): 1.3 µM
